18 sequences from a protein production outcome set (Wang et al. 2014) can be followed below.
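Further: failed if final PepcDB status was selected cloned or expressed and not failed if soluble or beyond.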

The nature of the data set: label from the status in PepcDB records.
On to “MMKRARIIYNPTSGRELFKKSLPEVLQKLEQAGYEASCHATTGPGDATVAARQAVERKFDVVIAAGGDGTLNEVVNGLVGHEFRPKFGIIPVGTTNDFARAIGVPRSIEEAADIICEGKTVPLDLGRANDTYFINIAGGGRITELTYEVPSKLKTVLGQLAYYLKGIEMLPSLHPTYVEIEYDGKLLQEEITMFLITNTRSVGGFEKVAPYASINDGLFDLLVLKKGSIADLIKAATQAQRGEHINNPKVLYTQANRIKVHSPDKLMINLDGEYGGDAPMEFENMYHCLELFVPEHQEDAL”, for which the protein production result is listed as “failed”. The entry for “MMKTQAEINKRLDAYRKGTVDSPYRVKVWTSYDNRFYPMEPGCIDVDKSFHAQCADLTIDYILWLTDNEFRIRGNAKDAINPKKNKLPEGWKIVLNRPSTVPRKGWIAVFTDGTYWEYGHIGMVYDGGNTSRFQILEQNWNGWANKKPSLRWDNYYGLTHFIVPPVAKENKAVSSSKQQAPKQKVKKASTKKALPKITKHITGYNMDKRGYNPKGVVLHNDAGGMNYKQYYNNLVNANYDRLARGIAHAYVDRTGIWEAIDESRIAWHVADGTRPGSGNHDFYGIEVNQSLRASDKEFLENEQAVFQFAAEKLKKWGLPANRNTVRLHNEFSQTSCPHRSMVLHTGLDPLYHSITEHARLKLKDYFIKQIRAYMDGKKPTSKVVVSKPGSASTPATRKDANGYRENPHGTLYKEEHATFTANANIITRYVGPFTNMPQAGILKAGQTIIYDEVMKQDGYIWVGYTAYNGKRVYLPVRKWNRETDSVGKLWGVIS” is “failed”; for “MMKVLLLEDVKNLGKAGEVCEVKDGYGNNFLIANQKAKLATNEVINKYKAEVKKKAEKEALEKAQKLQMVETLQTITLTIHKKVGANGSLFGAITKEEITERLKEQHASLNLDKKDIELKHPIKSTGIYEIEVKLGSGVVGVFKIDVVAE” it is “failed”. Next, “MMLDALQANGLMQILLLTLMAGLAMPVGAALASVERIHPRWLETEVRHSVIAFGGGALLAAVALVLVPEGTANLPMVGIVVCFAGGGISFMLLDRWLAANGTPASQLVAMLSDFVPEAMALGATFSVSSEGGILLAGIIALQNIPEGFNSYRELVDATHYRGLKIVGALALMALLGPVAGALGYFLLSDAPSVVSGIMLFAAGGILYIIFQDIAPQVRLKKHWAPPLGALAGFLLGVMGEVALSG”: “failed”; “MMLNRKDADYYLGKEIMLARIRRGALIPAKVNEEHFWLLIGISSIHSEKIIQALRDYLVFGVSRKDVCERYEVNNGYFSTSLNRLSRISQAAAQMVVYYSLEHHHHHH”: “not failed”.

As for “MMLRFSVITYTFGRLTTKKHNKVMKKLIFLFAFCLTVTNIFAQTDPSQLKKEGSDAFNAKNYPVAYAKFSEYLKQTNNQDSAIAYYCGMAADEVKKYAEAVTFFDIAIQKKFNIGNAYARKALALDAMKKTDEYVATLEEGLKVDPDNKTMIKNYGLHYLKAGIAAQKAGKVEEAEECFKKVIPLDHKTYKTNALYSLGVLCYNDGANILKKAAPLANSDADKYAAEKEKADGRFKEAIGYLEEATKVSPEDTKSKTMLSQVQAAMK”, the protein production entry is “failed”. Next, “MMLSMNRELIYLMLIFALLVIPRALQRFMVPAPLTCLLFGIGTMLVMGGKPHDDVIVLLSTLGISSLFLFAGLEVDLKALRRELWPLGVHLLVYSVALFCLGWLVWRYVGLTWQVAGLLALALLTPSPGFIIDSIGRLGLNEHERFWVVNKAIASELLALTVLFFVLQASDPWQMALSSGVLVALFVCLPLLFVALDRWVVPQAPGSEFSLLVMVGMIAAYATYKIGVYYLVGAFITGLIARLLHQRMPHLASEENLNAVRLFASFFVPFYFFRAGTNVSPQALSFEALGLGILITMVVLPLRIAVIWVQRRVLFGKGEDFRSSLRVSLALVPTLIFTLVLAGILRDRFSISEVLFGALLLYAAFTTLLPSLIFRLLSAWGVPSRSGDQASRETLPSSGMAG”: “failed”; “MMLTMGMLERYVLKRTMGALVGALAVLSAMVMLIAFVDIARNVGTRADASFLRLLYLTILQAPATILVLAPFIFLFGTMWAFVELNRRSELIAMRAAGISAWRFIMPAAASSFVIGLLTITLLNPLTTAMTAKFETERDRTMNGYLKEAPKGTWLRQGDDKTQIVIRARARELVDGSVRLRGVSLFVYTLNAKGVMDFTRRIEANEARLEPGFWRLSGVREATPGAGAIRSDSLSIPSNLDDRTASERFNTPQAVALWRLPATIQRTADAGFSAVPFKLRLQQDLATPLLFAAMSVLAAAFSLRLMRLGGLAMLAGSGVALGFGFFFFNELCSTLGRADVLAPFVAAWTPPTVALLVGFTLLCYTEDG”: “failed”. For the sequence “MMMKIGDKLKGKITGIKPYGAFVQLENGSIGLIHISEIKTGYIDNIYQTLSVGQEVLVQVVDYDEYSQKASLSLRTLEEEKHHYQHRHRFSNNRLNIGFKPLEEHLPIWVEENLDYLKKDQDESDNQAKD”, the protein production entry was “failed”.

In the case of “MMMLNPSNGGIEGEKMKKKAKVVVIMGPTGSGKSKLAVDLASHFPVEIINADAMQIYSGLDVLTNKVTVDEQKGVPHHLLGTVSSDMEFTARDFRDFTVPLIEEIVSRNHIPVLVGGTHYYIQAVVSKFLLDDAAEDTEECCADVASVVDQDMVVESVFGRDDLSHGYELLKELDPVAANRIHPNNHRKINQYLSLHASRGVLPSKLYQGKTAENWGCINASRFDYCLICMDAETAVLDRYVEQRVDAMVDAGLLDEVYDIYKPGADYTRGLRQSIGVREFEDFLKIHLSETCAGHLTSLSNDDKVMKENLRKILNFPKDDKLRIMLEEAIDRVKLNTRRLLRRQKRRVSRLETVFGWNIHYIDATEYILSKSEESWNAQVVKPASEIIRCFLETETESGRDPTSGKSIERDLWTQYVCEACGNKILRGRHEWEHHKQGRTHRKRTTRHKNSQTYKNREVQEAEVN”, the protein production entry is “failed”. The entry for “MMMMRAFIAENVRGIYAFDEDGKLVGKRYFTDKPEKILDGLLKGELVKDLEEFLNELREKGYDEFIFEHPELSRKAKELGFNATTEFPNLAGERLRSNPEEFLGENWFDDYYNVGVALTRMRIQEQSGARDKMVIQAIEALDDVDKVINLLVSRLREWYSLHFPELDEILPRHPQYVAFVKAIGHRDNVDEEKLRELGLSDEKIKKIIEAKEKTMGAWMDETDIAIVQHFAEEIDRLYKLRKELEDYIDKAMDDVAPNLKALVGAKLGARLISLAGGLKELAMLPSSTIQVLGAEKALFRHLRTGAKPPKHGVIYQYPAINRSPWWQRGKIARALAGKLAIAARVDYFSGEYIAEELKKELEARIKEIKEKYPRPPKRRKEERKGRKPWKEKKKKKKKKKGGRRLEHHHHHH” is “failed”; for “MMMTRSWAAGGSAVLLALLLGGTITSAHAQSADLVLCDRIAADPADPDKPADVKGVTEIAPGDVSTAIKYCRVASAGSRRAMYGLGRAYAAGGQTAEALAAYRKAADKGSSAAMVELGVAYATGVGLPKDDAKARQLLERAAAAGNPRGISNLAALGGGASSDPVKTRALLAKGAESNAEAQYQLGMMMADGIGGPKDDAGARALFEKAAGQGHPGALMQMGAFAQAGRGGPKDSDAAKAYYEKAAALGNADAKAALKRSDCPYVLKDKRGNMVTNLCF” it is “failed”; for “MMNGENMDKQTVIGFVVLFCVLELVFYLKKLYQSMALTLAVFGIFSLLFFLLYIPVLSKKAVPYVINYFKPPHQRVREIKVGSDETTDNSIIRLKEKAKTLHPDEGNRISGRSSNSFKDSASCIITIVDDSN” it is “failed”. Turning to “MMNTITNIVSYLPYLFAWFLLGYMGIVVLVYTGMLLLSVVQLKREQKLNKQEVYDDYLELTYTKPVSILVPAYNEETGIIETVRSLLSLKYPQTEIVVVNDGSTDQTLEVIIEHFQMVKVGKVIRKQIETEPIKGVYQSTIFPHLLLVDKSNGGKADALNAGLNVSKYPYFCSIDGDSILETDALLKVMKPIVTSRDDEDEVIASGGNVRIANGSDIQMGSVLSVQLAKNPLVVMQVIEYLRAFLMGRIGLSRHNMVLIISGAFSVFAKKWVMEAGGYSKKTVGEDMELVVRLHRLVKEKRLKKRITFVPDPVCWTEAPATFRVLQRQRSRWHRGLMESLWLHRGMTFNPKYGLVGTASIPYFWIVEFFGPVVELMGYLYIVFAFFFGGLYVEFALALFLLFVLYGTVFSMTAVILEGWSLKRYPKVSDMSRLMIFSLFEALWYRPLTVLWRFGAIIEALFRSKAWGEMTRKGLTKAEQKAS”, the protein production result is “failed”.

In the case of “MMNYNTPKVSIVVPSLNSISYIRECIDSILNQTLKDIEILCIDANSTDGTLEVLKNYEKKDKRLRVIISDKKSYGYQMNLGIKEAKGEYLGIVESDDYIKTNMYERLYEIAKKNDCEVVKGDFYIFAYGKTEYVNVLRNSCEDIYNYKVNWNKDIRIFLGSDGINPIGIYRLDLLRTNQIKLNETPGASYQDNGLWFQIFALAKSIYFINEAFYMLRRDNPNSSVKSKEKVYCACEEYDFIRDFLKKHPDLEKTLAPICALHRFGNYMFTLERIDERYKLDFLKRFSQDFRKILKDKELDENLFGNINMQRINKIIENPVIYYYFSRGARARLQNQLVYRLGKVVVEAKSFNKIIKLPFLMLKICLEHNFEHKVYRSIVQFRPDLKLLPLECYLDYHEALVIKEHLSYKFGKLILLSFKGWYKGKIFILPFMLKKRYKEYKNKMILEHHHHHH”, the protein production result is “failed”.

In the case of “MMPKRFNTSGFDTTLRLPSYYGFLHLTQSLTLNSRVFYGARHVTPPAIRIGSNPVQSLLLFRAPTQLTGWNRSSRDLLGRRVSFSDRSDGVDLLSSSPILSTNPNLDDSLTVIALPLPHKPLIPGFYMPIHVKDPKVLAALQESTRQQSPYVGAFLLKDCASTDSSSRSETEDNVVEKFKVKGKPKKKRRKELLNRIHQVGTLAQISSIQGEQVILVGRRRLIIEEMVSEDPLTVRVDHLKDKPYDKDNAVIKASYVEVISTLREVLKTNSLWRDQDIGDFSYQHLADFGAGISGANKHKNQGVLTELDVHKRLELTLELVKKQVEINKIKETDDGSSLSAKIRVRIDTKRDKIPKHVIKVMEEEFTKLEMLEENYSDFDLTYNYLHWLTVLPWGNFSYENFDVLRAKKILDEDHYGLSDVKERILEFIAVGRLRGTSQGKIICLSGPPGVGKTSIGRSIARALDRKFFRFSVGGLSDVAEIKGHCQTYVGAMPGKMVQCLKSVGTANPLILFDEIDKLGRCHTGDPASALLEVMDPEQNAKFLDHFLNVTIDLSKVLFVCTANVIEMIPGPLLDRMEVIDLSGYVTDEKMHIARDYLVKKTCRDCGIKPEHVDLSDAALLSLIENYCREAGVRNLQKQIEKIYRKVALELVRQGAVSFDVTDTKDTKSLAKTDSEVKRMKVADIMKILESATGDSTESKTKQSGLVAKTFEKVMIDESNLADYVGKPVFQEEKIYEQTPVGVVMGLAWTSMGGSTLYIETTFVEEGLGKGGLHITGQLGDVMKESAQIAHTVARRIMFEKEPENLFFANSKLHLHVPEGATPKDGPSAGCTMITSFLSLAMKKLVRKDLAMTGEVTLTGRILPIGGVKEKTIAARRSQIKTIIFPEANRRDFEELAENMKEGLDVHFVDEYEKIFDLAFNYDH”, the protein production entry is reported as “failed”. In the case of “MMQKPITEIIIVGGGTAGWITAGLLAAEHNVDKGVLAHSPKLNITLIESPDVATIGVGEGTWPSMRSTLSKIGIDENDFIRQCDASFKQGSRFINWCKDPQSNVADSYLHPFSLPHGHQELDLCPYWLPHAEQVSFAEAVCSQQVLTQLGLAPKSIVTAQYHFQNNYGYHLNAAKFSQLLTEHCTQKLGVTHIRDHVSQIINNQHGDIEKLITKQNGEISGQLFIDCTGAKSLLLGEHLQVPFLSQKSVLFNDRALAIQVPYSDANSPIASCTHSTAQPNGWIWDIGLPTRKGVGYVYSSSHTNDIDAQKTLFNYLGVDGAAADKLEPRQLAINPGYRAKCWQNNCIAIGMAAGFIEPLEASALALIEWTASTLAQQLPPNRMVMDTISARVNERYQQHWQQIIDFLKLHYVISQRQEDRYWRDHRESNSIPDSLQAMLELWRYQTPSQQDISYKEALFPAASFQYVLYGMSFNTQLPTHVKPSMQQLAQRLFNDNQQRTQALSKNLPTNRELLDKVAQYGFPKL”, the protein production result is given as “not failed”. Turning to “MMRAWIQLVIAIGVEIVGTSLLKLSSGFKYPLIGIVGMLLYGLAIFSFSRALSKIPLSVGYAIWAGVGTAATGLIGIWAFGEILTGLKTLGFMAIITGVILLNMPAKTTKSTTATPRSARWRTRFNR”, the protein production entry was “failed”.
